Here are results for three molecules from patent US20190060404A1 (published 2019).

Assay [1] concerns the target FGFR1-Fc (UniProt P11362). In words: SPR, FGFR1-Fc fixed on the sensor, VEGF-B167 added. A general note: Surface plasmon resonance follows binding to a sensor surface in real time, without labels.
For assay [2], the target named is human FGFR2-Fc (human) (UniProt P21802). In words: SPR, FGFR2-Fc fixed on the sensor, VEGF-B167 added.
The target in assay [3] is T1, VEGFR2 of C57B16 mouse retina and brain tissue (mouse, UniProt P35918 20-1345, limits assumed).
T1 construct: Endogenous protein in tissue lysate
Kind of assay: co-immunoprecipitation with anti-FGFR1 antibody from mouse retina and brain tissue. How it is done: (§1) Co-immunoprecipitation assay: brain tissues and retinae of the C57B16 mice were separated, and were homogenated after added with RIPA buffer comprising protease and phosphatase inhibitor. Supernatant was obtained by centrifuging. After protein quantification, the supernatant was incubated with anti-FGFR1 antibody at 4° C. overnight. Magnetic beads combined with A/G protein were added to capture the antibody complex. 10% PAGE electrophoresis and transfer to a PVDF film were performed successively for the complex, then the complex was incubated with the primary antibody of VEGFR1, VEGFR2 or FGFR1, and was further incubated with HRP-labeled secondary antibody, ECL luminescence reagent was added to display color in the end.

The target in assay [4] is T1, VEGFR2 of C57B16 mouse retina and brain …. Kind of assay: co-immunoprecipitation with anti-FGFR2 antibody from mouse brain and retinal tissue. Here is the method:
as §1
Co-Immunoprecipitation: brain tissue and retinae were extracted from the C57B16 mice. The C57B16 mice were intravitreally injected with BSA (500 ng/eye), FGF2 (100 ng/eye) or VEGF-B₁₆₇ (500 ng/eye), and their retinae were extracted 1 hour after the injection. The brain tissue and retinae, and the retinae from the injected C57B16 mice were treated by the operational procedure described in Embodiment 5, and incubated with anti-FGFR2 antibody for co-immunoprecipitation (with VEGFR1 or VEGFR2).

T1 sequence (P35918 20-1345 limits assumed, one chain of several): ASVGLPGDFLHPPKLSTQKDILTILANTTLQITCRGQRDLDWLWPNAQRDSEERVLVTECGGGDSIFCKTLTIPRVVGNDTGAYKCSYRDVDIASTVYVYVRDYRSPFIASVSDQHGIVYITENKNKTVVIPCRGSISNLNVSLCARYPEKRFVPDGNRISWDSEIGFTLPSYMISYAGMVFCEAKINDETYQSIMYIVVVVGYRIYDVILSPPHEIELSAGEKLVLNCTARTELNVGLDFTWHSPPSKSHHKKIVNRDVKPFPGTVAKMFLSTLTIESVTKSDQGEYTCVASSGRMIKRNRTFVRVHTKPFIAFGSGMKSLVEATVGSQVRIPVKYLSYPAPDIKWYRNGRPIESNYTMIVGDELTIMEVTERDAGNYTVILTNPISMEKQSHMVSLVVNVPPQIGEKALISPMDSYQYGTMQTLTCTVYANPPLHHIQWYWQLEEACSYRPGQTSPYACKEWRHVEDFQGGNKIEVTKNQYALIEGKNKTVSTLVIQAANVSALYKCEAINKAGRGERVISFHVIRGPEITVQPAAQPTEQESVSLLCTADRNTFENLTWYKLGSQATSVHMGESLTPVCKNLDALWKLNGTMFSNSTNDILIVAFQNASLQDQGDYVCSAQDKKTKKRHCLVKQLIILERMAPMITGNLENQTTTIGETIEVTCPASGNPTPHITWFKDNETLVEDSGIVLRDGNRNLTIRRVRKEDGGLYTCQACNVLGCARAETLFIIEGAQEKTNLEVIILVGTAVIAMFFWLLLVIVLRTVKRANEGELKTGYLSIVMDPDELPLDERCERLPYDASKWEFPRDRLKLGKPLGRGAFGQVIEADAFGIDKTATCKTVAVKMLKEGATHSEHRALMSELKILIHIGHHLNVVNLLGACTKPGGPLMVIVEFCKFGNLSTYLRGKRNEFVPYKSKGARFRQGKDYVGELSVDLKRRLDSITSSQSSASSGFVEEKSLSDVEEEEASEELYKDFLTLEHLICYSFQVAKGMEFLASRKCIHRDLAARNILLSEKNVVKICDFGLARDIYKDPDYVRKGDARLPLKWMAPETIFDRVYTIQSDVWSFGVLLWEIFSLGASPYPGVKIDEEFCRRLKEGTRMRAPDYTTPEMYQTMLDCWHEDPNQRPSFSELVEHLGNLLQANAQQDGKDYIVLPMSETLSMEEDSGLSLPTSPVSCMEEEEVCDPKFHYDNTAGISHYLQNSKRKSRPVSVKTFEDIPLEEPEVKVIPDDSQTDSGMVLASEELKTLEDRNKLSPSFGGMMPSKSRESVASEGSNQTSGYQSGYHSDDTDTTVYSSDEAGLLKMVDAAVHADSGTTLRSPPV
Sequence of FGFR1-Fc (P11362 22-376 limits assumed): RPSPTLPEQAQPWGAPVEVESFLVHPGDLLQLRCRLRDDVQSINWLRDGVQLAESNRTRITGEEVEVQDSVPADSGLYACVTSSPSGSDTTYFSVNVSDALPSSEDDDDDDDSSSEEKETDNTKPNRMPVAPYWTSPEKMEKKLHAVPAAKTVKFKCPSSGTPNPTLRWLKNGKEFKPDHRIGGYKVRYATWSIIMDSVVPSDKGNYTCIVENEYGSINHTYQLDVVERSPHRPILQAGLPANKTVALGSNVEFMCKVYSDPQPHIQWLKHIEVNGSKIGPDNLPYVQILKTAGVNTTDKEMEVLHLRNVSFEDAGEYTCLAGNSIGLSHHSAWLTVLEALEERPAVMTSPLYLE

Broadly, the Kd is the constant that tells how readily two partners part at equilibrium. High values mean weaker binding, low ones tighter binding. On to “VEGF-B167 (from UniProt P49765 22-207) (ligand)”, for which the Kd in assay [1] worked out at 15 nM; in assay [2], 112 nM.

B1: FGFR1 of C57B16 mouse retina and brain tissue (receptor, UniProt P16092 22-822, looked up)
chain: RPAPTLPEQAQPWGVPVEVESLLVHPGDLLQLRCRLRDDVQSINWLRDGVQLVESNRTRITGEEVEVRDSIPADSGLYACVTSSPSGSDTTYFSVNVSDALPSSEDDDDDDDSSSEEKETDNTKPNRRPVAPYWTSPEKMEKKLHAVPAAKTVKFKCPSSGTPNPTLRWLKNGKEFKPDHRIGGYKVRYATWSIIMDSVVPSDKGNYTCIVENEYGSINHTYQLDVVERSPHRPILQAGLPANKTVALGSNVEFMCKVYSDPQPHIQWLKHIEVNGSKIGPDNLPYVQILKTAGVNTTDKEMEVLHLRNVSFEDAGEYTCLAGNSIGLSHHSAWLTVLEALEERPAVMTSPLYLEIIIYCTGAFLISCMLGSVIIYKMKSGTKKSDFHSQMAVHKLAKSIPLRRQVTVSADSSASMNSGVLLVRPSRLSSSGTPMLAGVSEYELPEDPRWELPRDRLVLGKPLGEGCFGQVVLAEAIGLDKDKPNRVTKVAVKMLKSDATEKDLSDLISEMEMMKMIGKHKNIINLLGACTQDGPLYVIVEYASKGNLREYLQARRPPGLEYCYNPSHNPEEQLSSKDLVSCAYQVARGMEYLASKKCIHRDLAARNVLVTEDNVMKIADFGLARDIHHIDYYKKTTNGRLPVKWMAPEALFDRIYTHQSDVWSFGVLLWEIFTLGGSPYPGVPVEELFKLLKEGHRMDKPSNCTNELYMMMRDCWHAVPSQRPTFKQLVEDLDRIVALTSNQEYLDLSIPLDQYSPSFPDTRSSTCSSGEDSVFSHEPLPEEPCLPRHPTQLANSGLKRR
notes: Endogenous protein in tissue lysate
Turning to B1, the binding result in assay [3] is given as “no binding”.

B2: FGFR2 of C57B16 mouse tissue and mouse primary SMC (receptor, UniProt P21803 22-821, looked up)
chain: RPSFSLVEDTTLEPEEPPTKYQISQPEAYVVAPGESLELQCMLKDAAVISWTKDGVHLGPNNRTVLIGEYLQIKGATPRDSGLYACTAARTVDSETWIFMVNVTDAISSGDDEDDTDSSEDVVSENRSNQRAPYWTNTEKMEKRLHACPAANTVKFRCPAGGNPTSTMRWLKNGKEFKQEHRIGGYKVRNQHWSLIMESVVPSDKGNYTCLVENEYGSINHTYHLDVVERSPHRPILQAGLPANASTVVGGDVEFVCKVYSDAQPHIQWIKHVEKNGSKNGPDGLPYLKVLKAAGVNTTDKEIEVLYIRNVTFEDAGEYTCLAGNSIGISFHSAWLTVLPAPVREKEITASPDYLEIAIYCIGVFLIACMVVTVIFCRMKTTTKKPDFSSQPAVHKLTKRIPLRRQVTVSAESSSSMNSNTPLVRITTRLSSTADTPMLAGVSEYELPEDPKWEFPRDKLTLGKPLGEGCFGQVVMAEAVGIDKDKPKEAVTVAVKMLKDDATEKDLSDLVSEMEMMKMIGKHKNIINLLGACTQDGPLYVIVEYASKGNLREYLRARRPPGMEYSYDINRVPEEQMTFKDLVSCTYQLARGMEYLASQKCIHRDLAARNVLVTENNVMKIADFGLARDINNIDYYKKTTNGRLPVKWMAPEALFDRVYTHQSDVWSFGVLMWEIFTLGGSPYPGIPVEELFKLLKEGHRMDKPTNCTNELYMMMRDCWHAVPSQRPTFKQLVEDLDRILTLTTNEEYLDLTQPLEQYSPSYPDTSSSCSSGDDSVFSPDPMPYEPCLPQYPHINGSVKT
notes: Endogenous protein in tissue lysate (co-immunoprecipitation) or on cells (proximity ligation assay)
Regarding B2, the binding result in assay [4] is listed as “no binding”.
